Test results reported in publication PMC4351820.

Molecular target: hSSB1 (SSB1, single-stranded DNA binding protein 1) (human, UniProt Q9BQ15 1-211)
Test: EMSA

hSSB1 (SSB1, single-stranded DNA binding protein 1), sequence (Q9BQ15 whole entry): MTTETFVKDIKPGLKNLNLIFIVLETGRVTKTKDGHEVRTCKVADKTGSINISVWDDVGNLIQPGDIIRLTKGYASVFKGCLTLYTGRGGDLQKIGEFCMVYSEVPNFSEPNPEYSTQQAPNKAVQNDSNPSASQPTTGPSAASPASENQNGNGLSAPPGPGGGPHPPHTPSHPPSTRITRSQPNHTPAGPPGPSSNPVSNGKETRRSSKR

B1: G-rich telomeric strand (TTAGGG)5 (ssDNA)
DNA: TTAGGGTTAGGGTTAGGGTTAGGGTTAGGG
Q: Does B1 bind?
A: binds
